Reference: the supplement of paper PMC10567573

B1: TRAF3IP2 (parent)
chain: APWNYHYHCPGSPDHQVPYGHDYP
B2: NETO1 (parent)
chain: GFSPIIGRFCGQQNPPVIKSSGRF

Variants of: B1
Test: protein stability index of a GFP-peptide fusion (GPS, HEK-293T) (PSI 1-6); higher = more stable
Settings: c terminus: a fixed tail appended
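Also: lentivirally expressed fusions sorted by FACS into six bins by GFP to DsRed ratio, PSI derived from sequencing read proportions per bin multiplied by bin number.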

Protein stability index of substitutions, site by site:
P13: G 2.05 | A 3.02 | E 3.05 | W 1.67 | F 2.78 | I 1.87 | S 2.14 | Q 2.5 | C 1.94 | R 2.33 | D 2.4 | L 2.16 | Y 1.63 | M 2.12 | K 1.84 | N 1.83 | H 1.79 | T 2.24
P10: I 1.66 | G 1.71 | S 2.08 | N 2.08 | L 1.54 | M 2.02 | E 2.27 | Y 2.13 | F 2.07 | R 1.29 | W 1.46 | K 2.4 | D 2.31 | Q 2.04 | C 1.5 | V 2.09 | A 1.69 | H 1.96 | T 1.86
H8: Y 1.84 | V 1.95 | T 2.41 | W 2.26
S12: T 2.35 | D 2.49 | Q 2.5 | N 1.6 | R 2.47 | K 2.21 | I 2.27 | W 2 | Y 2.21 | A 2.07 | G 2.36 | C 2.75 | H 2.23 | V 2.2 | M 1.96 | E 2.37 | L 2.47 | F 1.7
Y19: P 2.51 | E 2.8 | K 2.51 | R 1.99 | T 2.85 | L 2.46 | A 2.47 | I 2.66 | F 1.87 | N 2.48 | M 2.23 | H 2.85 | D 2.75 | S 2.44 | C 1.91 | Q 3.09 | G 2.41 | W 1.82 | V 2.7
P24: Q 2.28 | E 4.07 | D 3.88 | C 2.02 | W 1.94 | H 3.02 | M 1.66 | A 2.51 | G 1.62 | T 2.63 | F 2.01 | K 2.8 | R 2.73 | S 2.21 | N 2.93 | I 1.72 | L 1.96 | Y 1.86 | V 1.96
C9: Q 2.16 | L 1.98 | D 2.59 | G 2.05 | Y 2.16 | E 2.55 | H 2.28 | M 2.73 | I 1.85 | P 1.9 | W 1.78 | R 2.52 | S 2.52 | K 2.66 | V 2.7 | T 1.69 | A 2.08 | N 2.17 | F 1.93
Y23: V 1.97 | M 2.25 | W 1.68 | L 2.27 | F 2 | A 2.85 | C 1.91 | S 2.85 | K 3.12 | I 2.3 | T 2.89 | H 1.88 | E 3.61 | G 2.92 | D 3.83 | Q 2.92 | P 3.06 | N 2.08 | R 2.9
P18: C 2.97 | E 2.54 | R 2 | M 2.56 | A 3.19 | K 3.59 | F 2.23 | G 1.92 | Q 2.54 | H 2.17 | T 2.37 | V 2.05 | S 1.67 | Y 2.16 | I 1.93 | L 2.21 | D 2.44 | W 1.71 | N 2.5
D22: C 1.41 | A 1.72 | W 2.16 | T 2.42 | G 2.41 | I 1.16 | Y 2.08 | N 1.36 | V 1.6 | Q 2.16 | R 2.18 | F 1.55 | E 2.36 | K 2.73 | M 1.95 | P 2.68 | S 2.33 | L 1.9
H15: T 1.91 | I 2.61 | F 1.65 | M 2.02 | R 2.1 | W 1.46 | E 2.43 | P 2.23 | A 2.1 | L 1.95 | Q 2.13 | K 2.65 | C 1.97 | N 2.48 | D 2.56 | S 2.22 | V 2.31 | G 2.73 | Y 2.14
G11: T 2.18 | C 2.02 | R 2.04 | F 2.73 | V 2.08 | S 2.12 | W 2.18 | N 1.87 | K 1.92 | Y 1.37 | A 2.55 | P 1.91 | D 2.21 | H 2.11 | M 3.15 | E 2.06 | Q 1.63 | L 2.31 | I 1.63
Q16: I 2.58 | W 1.68 | T 2.31 | P 2 | E 2.6 | M 1.94 | S 3.2 | N 2.54 | C 2.07 | G 1.81 | L 1.89 | R 2.02 | K 2.15 | Y 2.09 | D 2.49 | H 2.97 | A 2.64 | F 2.19 | V 2.09
D14: T 1.78 | Y 1.53 | I 2.08 | L 2.6 | S 2.26 | A 1.93 | W 2.32 | K 2 | C 2.49 | H 2.25 | F 2.75 | G 2.1 | V 2.09 | R 1.91 | Q 2.46 | E 2.72 | N 2.11 | M 1.84
V17: G 2.68 | H 2.71 | P 2.6 | S 2.31 | T 2.39 | L 2.81 | A 2.06 | I 2.15 | D 2.62 | M 1.88 | Y 1.81 | E 2.95 | W 2.08 | N 2.23 | R 2.4 | K 2.53 | Q 2.61 | F 1.73 | C 2.45
G20: H 2.35 | M 1.93 | S 2.28 | R 2.45 | L 1.74 | W 1.4 | V 2.13 | K 2.65 | E 2.48 | Q 2.19 | C 2.42 | N 2.44 | F 1.52 | T 2.66 | I 2.74 | D 2.95 | A 2.58 | P 2.26 | Y 2.15
H21: S 2.05 | Y 2.35 | R 2.4 | C 1.6 | I 1.74 | A 2.22 | L 1.52 | P 2.48 | D 2.79 | T 2.03 | F 1.56 | M 1.67 | W 2.69 | K 2.48 | N 2.39 | V 1.54 | Q 2.17 | E 2.55 | G 1.91

Variants of: B2
Test: as above
Settings: c terminus: a fixed tail appended

Protein stability index of substitutions, site by site:
I6: F 2.16 | C 2.11
Q12: Y 2.01 | H 2.3
Q13: F 1.75
S21: K 2.22 | V 2.15 | W 1.8 | H 2.06 | Q 2.08
C10: G 3.05 | E 3.76
S3: M 1.84
I18: R 3.13
G1: Y 1.93
P4: V 1.87
P15: K 1.99 | G 2.79
P16: Q 1.69
R23: K 2.44
G7: V 1.83
R8: V 2.23 | Y 1.83
V17: S 2.3 | P 2.22 | R 2.23
G22: Y 2.1
F24: M 1.97
F2: P 2.5 | C 2.73
